The values that follow come from paper PMC8626469, “Helicobacter pylori FabX contains a [4Fe-4S] cluster essential for unsaturated fatty acid synthesis” (Nature Communications, 2021).

Substrate in the data set “purified protein”: CCCCCCCCCC(=O)SCCNC(=O)CCNC(=O)[C@H](O)C(C)(C)COP(=O)(O)OP(=O)(O)OC[C@H]1O[C@@H](n2cnc3c(N)ncnc32)[C@H](O)[C@@H]1OP(=O)(O)O
Put plainly: purified protein. Format: biochemical, Helicobacter pylori. Conditions: pH 7.2, 50 mM sodium phosphate, 50 mM NaCl, 25-37 °C, 1.25 uM FabX, 5 uM E. coli FabI, 125 uM NADH, dehydrogenation of substrate analogue of decanoyl-ACP, 30-250 uM.

Data set [1] deals with Helicobacter pylori FabX R164A (H. pylori).
Data set [2] deals with Helicobacter pylori FabX (H. pylori). Put plainly: SEC-MALS; 10 mg/ml FabX, holo-ACP or FabX-holo-ACP complex on a WTC-030S5 column; 20 mM HEPES pH 8.0, 50 mM NaCl, 10 mM TCEP. Background: Size exclusion chromatography separates by hydrodynamic size, large species first.

B1: FabX (Helicobacter pylori) (protein)
chain: MVSTLKPLKIGKHTIKFPIFQGGMGVGISWDELAGNVAKEGALGVISAVGTGYYKNMRFVERIVAKKPFEALNFYSKKALNEIFANARKICGNNPLGANILYAINDYGRVLRDSCEAGANIIITGAGLPTNMPEFAKDFSDVALIPIISSAKALKILCKRWSDRYKRIPDAFIVEGPLSGGHQGFKYEDCFKEEFRLENLVPKVVEASKEWGNIPIIAAGGIWDRKDIDTMLSLGASGVQMATRFLGTKECDAKVYADLLPTLKKEDILLIKSPVGYPARAINTGVIKRIEEGNAPKIACVSNCVAPCNRGEEAKKVGYCIADGLGRSYLGNREEGLYFTGANGYRVDKIISVHELIKELTEG
notes: full length, 363 residues; expressed in E. coli BL21(DE3) Rosetta; monomer in the asymmetric unit; holds FMN and a [4Fe-4S] cluster
A word on the Km: it is the concentration of substrate that gives half-maximal velocity. The term kcat denotes the maximal rate divided by the concentration of active sites. In the case of B1, in the data set “purified protein”, the Km turned out to be 125.40 µM and the kcat was 0.0186 s⁻¹.

B2: Helicobacter pylori decanoyl-acyl carrier protein (natural protein)
chain: MALFEDIQAVIAEQLNVDAVQVTPEAEFVKDLGADSLDVVELIMALEEKFGVEIPDEQAEKIINVGDVVKYIEDNKLA
In the case of B2, the in vitro dehydrogenation activity with decanoyl-ACP (FabX-FabI coupled assay), fold reduction against wild type FabX in data set [1] stood at 80 fold.

B3: Helicobacter pylori holo-acyl carrier protein (natural protein)
chain: MALFEDIQAVIAEQLNVDAVQVTPEAEFVKDLGADSLDVVELIMALEEKFGVEIPDEQAEKIINVGDVVKYIEDNKLA
modifications: phosphopantetheine group (PPant) on Ser36
The stoichiometry N is a count of units in the complex or per binding partner. As to B3, the stoichiometry N in data set [2] was 1.
